Target: the molecule itself

B1: wild-type α-hemolysin (WT-HL) (natural protein)
chain: ADSDINIKTGTTDIGSNTTVKTGDLVTYDKENGMHKKVFYSFIDDKNHNKKLLVIRTKGTIAGQYRVYSEEGANKSGLAWPSAFKVQLQLPDNEVAQISDYYPRNSIDTKEYMSTLTYGFNGNVTGDDTGKIGGLIGANVSIGHTLKYVQPDFKTILESPTDKKVGWKVIFNNMVNQNWGPYDRDSWNPVYGNQLFMKTRNGSMKAADNFLDPNKASSLLSSGFSPDFATVITMDRKASKQQTNIDVIYERVRDDYQLHWTSTNWKGTNTKDKWIDRSSERYKIDWEKEEMTN
- stoichiometry N: 7
